Experiments:
Details in all cases: glycan gained; control: wild type
[1] = Anti-V5 blot of Ni-NTA purified C-terminal fragment, COS-1
[2] = HNG colorimetric assay, stable H4 lysates
[3] = Uptake index: recipient lysate activity / input medium activity
[4] = GALC blot and activity in H4 conditioned medium

B1: galactocerebrosidase (GALC): D528N (protein)
parent chain: MLGKSHGRATHGPLPLADLGIHLPCVKVLHQVTPEEKPAATSRLLVNYPEPYRSQILDYLFKPNFGASLHILKVEIGGDGQTTDGTEPSHMHYALDENYFRGYEWWLMKEAKKRNPNITLIGLPWSFPGWLGKGFDWPYVNLQLTAYYVVTWIVGAKRYHDLDIDYIGIWNERSYNANYIKILRKMLNYQGLQRVKIIASDNLWESISASMLLDAELFKVVDVIGAHYPGTHSAKDAKLTGKKLWSSEDFSTLNSDMGAGCWGRILNQNYINGYMTSTIAWNLVASYYEQLPYGRCGLMTAQEPWSGHYVVESPVWVSAHTTQFTQPGWYYLKTVGHLEKGGSYVALTDGLGNLTIIIETMSHKHSKCIRPFLPYFNVSQQFATFVLKGSFSEIPELQVWYTKLGKTSERFLFKQLDSLWLLDSDGSFTLSLHEDELFTLTTLTTGRKGSYPLPPKSQPFPSTYKDDFNVDYPFFSEAPNFADQTGVFEYFTNIEDPGEHHFTLRQVLNQRPITWAADASNTISIIGDYNWTNLTIKCDVYIETPDTGGVFIAGRVNKGGILIRSARGIFFWIFANGSYRVTGDLAGWIIYALGRVEVTAKKWYTLTLTIKGHFTSGMLNDKSLWTDIPVNFPKNGWAAIGTHSFEFAQFDNFLVEATR
For B1, the “other: proteolytic processing” value [1] was “no change”, the “enzymatic_activity, percent_of_wt” value [2] was “decreases” and the “other: cellular uptake, other: uptake index” value [3] was “decreases”. The expression_or_secretion [4] was “decreases”.

— article PMC3278277
